The values below are quoted from earlier work in publication doi:10.1101/2025.09.24.678334.

The series deals with TATA-binding protein (Homo sapiens) (UniProt P20226).
Sequence of UniProt P20226 (P20226 whole entry): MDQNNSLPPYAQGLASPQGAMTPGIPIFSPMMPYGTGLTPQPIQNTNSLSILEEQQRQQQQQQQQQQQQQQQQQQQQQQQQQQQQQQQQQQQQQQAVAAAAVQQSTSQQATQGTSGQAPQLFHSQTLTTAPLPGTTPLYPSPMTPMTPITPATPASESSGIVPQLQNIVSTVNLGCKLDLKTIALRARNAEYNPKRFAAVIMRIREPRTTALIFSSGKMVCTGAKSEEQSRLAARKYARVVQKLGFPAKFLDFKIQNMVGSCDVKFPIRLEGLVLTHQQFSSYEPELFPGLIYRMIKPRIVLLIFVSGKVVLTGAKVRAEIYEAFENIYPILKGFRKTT

Regarding Importin 9 (from UniProt Q96P70), the Kd (as a rule, the equilibrium constant for the complex coming apart) was 1 nM.
